Measurements from the DeepSol protein solubility set.

Experiment: soluble on expression in E. coli; label from the status in PepcDB or PDB records

Sequence	soluble on expression in E. coli
MGSDKIHHHHHHMNRGCFDIAVITDREAFQAILDEWNQLADINGYYTPWFCWEWFDLCLRHGETRALHILMVRSGGSLVAVAPFTVRSERYKGVVPARILSSIGGNRSPLKGIVFGDADENMQREVTTLVLEYLRTTFKNWDILELEPVAGSNDGNSIETLIERQGLSFRSYISCANRYCDVADASFDGFFERLPQSTRKDINYCRRRLEKNGSLVFQIITDAASLDQCLDVYDAVRAKSWKAAEKDREFNRELMHVAAGKGWLRLGILSYDGTPIAVQKWIVANGRAYIYDVLYDEEYKKHSPGKILTSMMFQHAIDNERVAYVDYLRGDEPYKEEWTPSLRNRIGIEAYNKSVLGCTASILMKKILPLVKKNTDSTNAHK	not soluble
SDDFDMLSAPQGSAGNGVGADEDPAAAFLAQQESEIAGIENDEGFSILDSGDVPSSLSQDQDGGAMNGDLHGESNGPSDVYAAISSVDRLQAEPESLRKWREEQRDRLEELDANSRKQEAEWKEKAKLELEEWHTRQNEQLEKTKVNNRVLDEDFYKQPFADLIGYVTHINHPCYRLDQAAEEAMVSELDENSPGTEWERVARLCDFNPKSSKQAKDVSRMRSVLISLKQAPLVR	soluble
MKYIVNKSHNPAFNIALEAYAFRELVEEDELFILWINEPAIIIGKHQNTIQEINKEYIDEHGIHVVRRLSGGGAVYHDLNNLNYTIISNKTAEGAFDFKTFSQPVIATLADLGVTANFTGRNDIEIDGKKICGNAQAYYKGRMMHHGCLLFDVDMTVLGDALKVSKDKIESKGVKSVRARVTNILNELPEKITVEEFSDKILAKMKETYPDMTEYVLSEDELAKIEQSAKEQFGSWDWTYGKAPEYTIERNVRYPAGKISTFANVENSIIKNLKIYGDFFGIKDVQDIENLLIGCKYEYRDVFERLKTIDTTQYFSRMTVEEVAKAIVS	not soluble
RIVCQFSCGAASAVATKLALADYSATHDVQILNAYLVNEHADSLRFLADCEAWFEQPVTVLRDEKYGADIIEVFRRERFIKKQYGASCTQLLKRRLLDIWKLPGDVMVFGYTAEEADRLEDFRERNPDRPVIAPLIDRGLGKEDCKAMIQRAGIELPVMYRMGYDNANCI	not soluble
MGHHHHHHSHMDSKAIAERIKKLQAQQEHVRIGGKGTPRRKKKVIHKTAAADDKKLQSNLKKLSVTNIPGIEEVNMIKDDGTVIHFNNPKVQTSVPANTFSVTGSADNKQITEMLPGILNQLGPESLTHLKKLANNVTKLGPDGKGEDEDVPELVGDFDAASKNETKADEQ	not soluble
MRVGIPTETKNNEFRVAITPAGVAELTRRGHEVLIQAGAGEGSAITDADFKAAGAQLVGTADQVWADADLLLKVKEPIAAEYGRLRHGQILFTFLHLAASRACTDALLDSGTTSIAYETVQTADGALPLLAPMSEVAGRLAAQVGAYHLMRTQGGRGVLMGGVPGVEPADVVVIGAGTAGYNAARIANGMGATVTVLDINIDKLRQLDAEFCGRIHTRYSSAYELEGAVKRADLVIGAVLVPGAKAPKLVSNSLVAHMKPGAVLVDIAIDQGGCFEGSRPTTYDHPTFAVHDTLFYCVANMPASVPKTSTYALTNATMPYVLELADHGWRAACRSNPALAKGLSTHEGALLSERVATDLGVPFTEPASVLAHHHHHH	soluble
AKDAVLSVDGIIVARSSNEITDLIPGATLALSGKTTDPATLSVSRDTQLAEAAMTYMVEELNATMKLLGELTRRSTDGSGSGELAGDRVVETLKRQVTALIGQPLTGHGEKPVYLSQLGVSTNRDGSLSFNASAFQKAFEKTPQIFDAMFTDSLTAITPGASIAGKAASSAASGDYIFRLDPVTGEATVGGGATLALPGANGASQYLVLSGGLAGVMVSVESGVTDATLRFGRSFATQLQALLDTAAGQNGAISDREGQIGKVAEEQAKVIEALDARAAKLESRYLAQFTAMEQAVSRMKSTGTYLENLISAWNKD	not soluble
MSDFMSNTAALQLLHNAVKSYEREVANFFAANEKATSKYTGRFDFRQFAKKMFDPIPTAQLGQLYIEMLEESHIYMHSHQKSRVGANGYPHSFVSVPELLLNMILAYQLPQQRFVPAEKMEEDGGKVEEDGGAGGAGGSRKKRRNSAARKGKNVTINPRVVLGNELAAKLLEEMLKIPLAPESKQWKTAKYVLCPSSCPQQMEVFGEIIAKNTKSGLISFNALNYFMHDPILNRYLDDPITILHALYIGPLQAPTVELFATNRTDVFRQRCREVLRIALHASKDPMTFTYSVPEFIDKNHPDRCSYRDFVETVTQLIRDLNGEHQGSTAIHTGWACAAIKKFGQKRYVDKTWKDENYYDLIWTVLAQRPHLKKFVVDVLEKNFKDLDAARFWRRMQPYQMNPTVIFNQNVIIVDPLQPTDEFLNFPPTVRHIQMVTNEKEIRDLQMLLEYKVSREEKIYVGVDAEWSAYVSPSKATILQMSLHDCIYIIDLESYQISPQSYHHVLSYLFETPEIVKIGFQFGEDLHQLRAAFRNCVALYRPNNVVCVGKLIMDLMDEIGKLENCDDFRKEWLPHLTDNETSSAANSSVEEQANETIDTNESMDEGDGGGSGIVVKKEESVKQQFLNKGLSFICEKLLGRPLDKTEQCSVWDRRPLRCLQLRYAAMDAYCMLLLYEKCATIFAKLGINVNDFVSKQSPIRISLPLLSEEKL	not soluble
MGSDKIHHHHHHMAQIISINDNQRLQLEPLEVPSRLLLGPGPSNAHPSVLQAMNVSPVGHLDPAFLALMDEIQSLLRYVWQTENPLTIAVSGTGTAAMEATIANAVEPGDVVLIGVAGYFGNRLVDMAGRYGADVRTISKPWGEVFSLEELRTALETHRPAILALVHAETSTGARQPLEGVGELCREFGTLLLVDTVTSLGGVPIFLDAWGVDLAYSCSQKGLGCSPGASPFTMSSRAIEKLQRRRTKVANWYLDMNLLGKYWGSERVYHHTAPINLYYALREALRLIAQEGLANCWQRHQKNVEYLWERLEDIGLSLHVEKEYRLPTLTTVCIPDGVDGKAVARRLLNEHNIEVGGGLGELAGKVWRVGLMGFNSRKESVDQLIPALEQVLR	soluble
MLTFNDNKAGMNGLDKEKITKVIEENTSASYSSFSKKQQSRIEEKVLEIKNRLQTATREERQKSEILMENLEMKLESSRDLSRDCVCIDMDAYFAAVEMRDNPALRTVPMAVGSSAMLSTSNYLARRFGVRAGMPGFISNKLCPSLTIVPGNYPKYTKVSRQFSQIFMEYDSDVGMMSLDEAFIDLTDYVASNTEKKTFKRHRFGGDCPCWLPRFDENENTLEDLKIEESICPKCEKSRKIYYDHVEFGTGREEAVREIRFRVEQLTGLTCSAGIASNFMLAKICSDLNKPNGQYVLENDKNAIMEFLKDLPIRKVGGIGRVCEAQLKAMDIQTVGDMNLKKNLYPLCFTPLSQESFLRTALGLPGRPSESDPRRKSISVERTFSPTSDFNILLEEHQEICRMLEEDVRKSGIVGGKTVTLKLKLSSFDVLTRSLTPSDVVKSLEDIQKFSLELLEKEKGKEIRLLGVRLSQLIFEEDEKKRSKTVCQKILKTITDKYKAMFSSIFLRHFISDHRVLE	not soluble
MGHHHHHHSHMAGWIQAQQLQGDALRQMQVLYGQHFPIEVRHYLAQWIESQPWDAIDLDNPQDRAQATQLLEGLVQELQKKAEHQVGEDGFLLKIKLGHYATQLQKTYDRCPLELVRCIRHILYNEQRLVREANNCSSP	not soluble
MDAIFLKLDNIKGESQVEGFEDQIEIMSYSHNVAMQVNNDVSLTERTSGRAHVGEMSLTKFVDLATPVLNEYCCSGRLIRTAVLTLCRNDDGKMRSLIVYTLTNVLISQLSVSGGAGGKPVETMSLNFTKIEWQITAEKSDGAQQESRTSVWDLAMNQIGK	not soluble
MRRLLLTLILAATLLGCSQAPQEKLKVGILPIEDSLPIVVADEQGFFKKHGLDVEVIQFSSAVERDAALTAGEVDAVITDPLAVILLRDKGYDVRIASLCLGKTPKEGVFAILAAPNSDIDSVEDLDGKEIAVSLNTIIEYALDVMLSEYGLNYTKISIPKIPIRMQALLNGNVETAVLPEPLASYAVSKGAKLILSDAMLNESITQTVIVFRGDVDDEKVQKFLEAYREAVREINANKEKYREKFIEIARVPENIAGSYPIPDYPEPQQLPKEYYDRYLEWAMQRGLIEKPVPYEEAIR	not soluble
MTTFILSHNLQVQSKDVPPFETQVLADGIVSNSSAIISATVIQHPHWIIELTSNLPPNDMAVELVKSWKQLRSKLGQSADHVILALGGRKDSLAAPGAPLQEGFWGVDVVETHDEEAFLQAINWDALKSNRPEDGVFEISSNN	not soluble
MLDKQTMVTAHNALPGRTTAMSIDDTHFVNGSSLTAAPQSGQQQILIGMGCFWGAERLFWQLDGVISTSVGYSGGFTPNPTYEEVCSGKTGHTEVVRVIFDPERLPLTELLRAFWERHDPTQGMRQGNDRGTQYRSAIYTFSEDQREIAEASKAAYQALLTAQHRPSITTEILPAGAYYFAETYHQQYLAKNPNGYCGLGGTGVCFPPHSTL	not soluble
MLEKTLLKIALDLSLSLPKKAHYQRLMLAVNEVMPCDAVALLVLQDDYLVPVAVDGLSPEVLGMRFSPEEHPRLKAILSSRKPIRFDADSSYPDPYDGLLSIDPKRVLDVHDCMGCCLYVEENLVGVLTLDALQVGAFSNVDDITVATLAALAAATIRNANCIAVLEKRNEKALCLTNELVKDAHKAKGDD	not soluble
MGSDKIHHHHHHMAVKMIKVHGSGNDFYLLDQTQFQAPLSDADLKQLAINICKRDGAGLYDGADGVLVVDKSEHPQVLGRMRVINADGTEASMCGNGLRTVARYLGTQNSQEDFRVQTMYADLKVQAVADFAAHVPAYSVEISPVTFDAQTLGMHANNDATTIINEKIPALSADLKFSAVAVPNPHLIAFVDHDTLVGPELGRIGEWMNDGKNQIFPDGVNVSFVEVLGPNSIFVRTFERGVGFTNACGTAMSASSLMYVLLHQESTDFNQEIHVTNPGGMVKTVVHQGADEEYWMELIGNATFVRIVTLPLEDALQGDYSPVTATETGEQVAYEDFVANLAKA	not soluble
MHFPISMAVPARFTGPLPESCDVVVIGAGVIGVMTGWYLAERGFRVTVCEKGRVAGEQSSRNWGWIRQQGRDPDELPIMVESLRLWQGLAQSLGNPFGFRQTGVLYLANREEQLSQYEGWMIHAAAQGLDTRLLGRRELAERLPGAADLWQGGLFTASDARAEPWLAVPALAAGAAERGVTILEDCAVRALDLEGGRVAGVTTERGRIRAPEVVLAGGAWSSLFARAHGVNLPQLSVLSSVAQTEPLPEILPGAAADDAFAFRRREDGGYTIAGGSEHDFFIGPDAFRHALKYRKAVKKDFLSTHYRWLAPRDYPDGWNTPRTWSKGAPTPFEAMRVLNPAPNLATLSRAAAAFGRAFPGVGRPKIRATWAGMIDTMPDVVPVIDRAPSVPGLTIATGMSGHGFGIGPGVGRVVADLVAGRPVGHDLTRFRLSRFTDGSEITLGPSL	not soluble
HQPVSFGLSVRKSLPKGFSVETGLTYTLLSSDIKRQGDTKMQSQKLHYIGIPVRGNWNFLEKKYFTLYVSAGGMVEKCVYGKLADDKVNVKPLQFSVAGAVGAQFNATDHVGLYVEPGVSYFFDDGSKVQTIRKERPCNFNLQAGLRFTY	not soluble
HMGKIYAAMMIMEYYRQSKAKK	soluble
